Target: RDTND-RIDC/A (DUF1-RIDC/A, residues 1959–2901, C2838 to alanine), from the 6×His construct (V. vulnificus MO6-24/O)
Experiment: ITC

Human calmodulin2 (CaM), 6×His/GST tag cleaved (from UniProt P0DP24 1-149) (natural protein)
stoichiometry N: 1
